Here are results for 1 molecule from PMC6398391 (The FEBS journal, 2018).

This assay deals with c-MYC:MAX bHLHZip heterodimer (MYC 352-437, MAX 22-102) (human, UniProt P01106-1 352-437; P61244 22-102). The assay can be described thus: NMR titration; unlabeled MYC:MAX dimer titrated into 15N-labeled INI1 RPT1 (147 uM); 1H,15N HSQC; fast exchange; shifts fitted to a single-site binding curve; 25 °C. To be noted: both partners purified.
Chain of c-MYC:MAX bHLHZip heterodimer (MYC 352-437, MAX 22-102) (P01106 367-452, chain 1 of 2): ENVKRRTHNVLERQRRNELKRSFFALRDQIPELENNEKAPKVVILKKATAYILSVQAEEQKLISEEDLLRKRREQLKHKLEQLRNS
Chain of c-MYC:MAX bHLHZip heterodimer (MYC 352-437, MAX 22-102) (P61244 22-102, chain 2 of 2): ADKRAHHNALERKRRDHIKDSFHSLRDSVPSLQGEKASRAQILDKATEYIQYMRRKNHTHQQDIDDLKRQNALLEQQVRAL

B1: INI1/hSNF5 RPT1 (residues 184-258) (domain or fragment, human, UniProt Q12824 184-258, looked up)
chain: EVLVPIRLDMEIDGQKLRDAFTWNMNEKLMTPEMFSEILCDDLDLNPLTFVPAIASAIRQQIESYPTDSILEDQS
Consider B1, for which the Kd was determined as 44 ± 6 µM.

Broadly, the Kd is the constant that tells how readily two partners part at equilibrium.
